Measurements reported in patent publication US8822645B2, “Prostaglandin E2 dual variable domain immunoglobulins and uses thereof” (AbbVie Inc., priority 2008, dated 2014).

Legend:
[1] = tested on: PGE2 / human EP4 receptor in HEK293 Gα16 cells; assay: EP4 bioassay (Ca++ flux, neutralization of PGE2); type: cell-based; details: for IC50: EP4 assay
Protocol: The ability of anti-PGE2 antibodies and anti-PGE2 containing DVD-Ig molecules to inhibit the cellular response of PGE2 was determined in a Ca++ flux assay in HEK293 Gα16 cells stably transfected with human EP4 receptor. Cells were plated in black/clear poly-D-lysine plates, (Corning #3667, Corning, N.Y.) and incubated with Ca++-sensitive dye (Molecular Devices) for 90 minutes. Stock PGE2 (in 200 proof ethanol) was diluted with FLIPR buffer (containing 1×HBSS (Invitrogen, Carlsbad, Calif.), 20 mM HEPES (Invitrogen, Carlsbad, Calif.), 0.1% BSA (Sigma, St. Louis, Mo.) and 2.5 mM Probenecid (Sigma, St. Louis, Mo.)). Anti-PGE2 antibodies, DVD-Ig molecules or isotype matched control antibodies were also pre-diluted in FLIPR buffer. 25 μl of PGE2 or pre-incubated PGE2/antibody mixture or pre-incubated PGE2/DVD-Ig molecule mixture was added to the wells pre-plated with cells. A dose response of PGE2 was done by a serial titration of PGE2 and was determined using FLIPR1 or Tetra (Molecular Devices). EC50 was determined using GraphPad Prism 5 (GraftPad Software, La Jolla, Calif.). […] Ca++ flux was monitored using FLIPR1 and data was analyzed using GraphPad Prism 5.
The ability of anti-PGE2 antibodies and anti-PGE2 containing DVD-Ig molecules to inhibit the cellular response of PGE2 was determined in a Ca++ flux assay using stably transfected human EP4 in HEK293 Gα16 cells. Cells were plated in black/clear Poly-D-Lysine plates, (Corning #3667) and incubated with Ca++-sensitive dye (Molecular Devices) for 90 minutes. Stock PGE2 (in 200 proof ethanol) was diluted with FLIPR buffer (containing 1×HBSS, 20 mM HEPES, 0.1% BSA and 2.5 mM Probenecid). Anti-PGE2 antibodies, DVD-Ig molecules or isotype matched control antibodies were also pre-diluted in FLIPR buffer. 25 μl of PGE2 or pre-incubated PGE2/antibody mixture or pre-incubated PGE2/DVD-Ig molecule mixture was added to the wells pre-plated with cells. A dose response of PGE2 was done by a serial titration of PGE2 and was determined using FLIPR1 or Tetra (Molecular Devices). EC50 was determined using GraphPad Prism 5. […] Ca++ flux was monitored using FLIPR1 and data was analyzed using GraphPad Prism 5.

[2] = 3H-PGE2 ELISA (PGE2 binding affinity)
Protocol: Alternatively, prostaglandin binding screen for antibodies or DVD-Ig molecules can be determined using a ^3H-PGE2 ELISA. Plates were coated at 50 μl/well with 5 μg/ml of goat anti-human IgG (Fc) (Thermo Scientific #31170, Hudson, N.H.) or goat anti-mouse IgG (Fc) (Thermo Scientific #31125, Hudson, N.H.) in PBS and incubated overnight at 4° C. The following day plates were flicked and blotted dry. Plates were then blocked with 200 μL/well of Superblock (Thermo Scientific #37515, Hudson, N.H.), for 1 hour at room temperature. Plates were flicked and blotted dry. Monoclonal antibodies were diluted to 0.04 μg/ml in PBST (Abbott Bioresearch Center, Worcester, Mass.)/10% Superblock and 50 uL of each antibody or DVD-Ig was added to each well of the pre-blocked ELISA plate at 2 ng/well and incubated for 1 hour at room temperature. Wells were washed 3 times with PBS+0.1% Tween-20. A serial 3 fold titration of ^3H-PGE2 (Perkin Elmer #NET-428, Waltham, Mass.) was prepared in PBST+10% Superblock. Fifty microliters of the ^3H-PGE2 solution was then added to each well of the plate and incubated for 1 hour at room temperature. Wells were washed 6 times with PBST+10% Superblock and 50 μL of scintillation fluid (Perkin Elmer #6013621, Waltham, Mass.) added to each well. Plates were read using the TopCount reader (Perkin Elmer, Waltham, Mass.) with a 5 minutes count delay. EC50 number was determined using GraphPad Prism 5 (GraphPad Software, La Jolla, Calif.).

target antigen = assay: BIACORE affinity determination of parent antibodies and DVD-Ig constructs; type: binding; details: antigen IL-15, 25° C.
Protocol: The BIACORE assay (Biacore, Inc, Piscataway, N.J.) determines the affinity of antibodies or DVD-Ig with kinetic measurements of on-rate and off-rate constants. […] All chemicals are obtained from Biacore® AB (Uppsala, Sweden) or otherwise from a different source as described in the text. For example, approximately 5000 RU of goat anti-mouse IgG, (Fcγ), fragment specific polyclonal antibody (Pierce Biotechnology Inc, Rockford, Ill.) diluted in 10 mM sodium acetate (pH 4.5) is directly immobilized across a CM5 research grade biosensor chip using a standard amine coupling kit according to manufacturer's instructions and procedures at 25 μg/ml. Unreacted moieties on the biosensor surface are blocked with ethanolamine. Modified carboxymethyl dextran surface in flowcell 2 and 4 is used as a reaction surface. Unmodified carboxymethyl dextran without goat anti-mouse IgG in flow cell 1 and 3 is used as the reference surface. For kinetic analysis, rate equations derived from the 1:1 Langmuir binding model are fitted simultaneously to association and dissociation phases of all eight injections (using global fit analysis) with the use of Biaevaluation 4.0.1 software. Purified antibodies or DVD-Ig are diluted in HEPES-buffered saline for capture across goat anti-mouse IgG specific reaction surfaces. Antibodies or DVD-Ig to be captured as a ligand (25 μg/ml) are injected over reaction matrices at a flow rate of 5 μl/min. The association and dissociation rate constants, kon (M^−1 s^−1) and koff (s^−1) are determined under a continuous flow rate of 25 μl/min. Rate constants are derived by making kinetic binding measurements at different antigen concentrations ranging from 10-200 nM. The equilibrium dissociation constant (M) of the reaction between antibodies or DVD-Igs and the target antigen is then calculated from the kinetic rate constants by the following formula: KD=koff/kon. Binding is recorded as a function of time and kinetic rate constants are calculated. In this assay, on-rates as fast as 10^6 M^−1 s^−1 and off-rates as slow as 10^−6 s^−1 can be measured.

[3] = PGE2-biotinamide ELISA (PGE2 binding); details: PGE2 VD in C-terminal position, read-out: Direct Bind ELISA C-terminal VD EC50
Protocol: (§1) Enzyme linked immunosorbent assays to screen for anti-PGE2 antibodies or anti-PGE2 containing DVD-Ig molecules that bind prostaglandin E2 were performed as follows. ELISA plates (Costar 3369, Corning, N.Y.) were coated with 50 μl of anti-host Fc IgG (Sigma, St. Louis, Mo.) at 2 μg/ml in PBS (Invitrogen Carlsbad, Calif.). Following an overnight incubation at 4° C., the plate was blocked with 200 μl Superblock (Pierce #37535, Rockford, Ill.). The IgG or DVD-Ig containing samples were diluted to 1 μg/ml in Assay Buffer (10% Superblock in PBS containing 0.05% Surfactamps (Pierce #37535, Rockford, Ill.) and incubated on the plate at 50 μl/well for 1 hour at room temperature. Following the incubation, plates were washed four times with TTBS (Tween-Tris Buffered Solution). For PGE2 binding, PGE2-biotinamide (Cayman Chemicals, Ann Arbor, Mich.) was diluted to 30 nM and serially diluted in Assay Buffer. The titration curve was added to each IgG or DVD-Ig sample at a volume of 50 μl/well and incubated for 1 hour at room temperature. The plates were washed as previously described and 50 μl/well of 1:5000 dilution of streptavidin polyhrp40 (Fitzgerald Industries, Concord, Mass.) in Assay Buffer was added and incubated for 45 minutes at room temperature. A final wash step was performed and the plates were developed using a single step TMB system (Sigma #T8665, St. Louis, Mo.) and 2N H2SO4. Plates were read at 450 nm on a Molecular Devices Spectramax plate reader (Sunnyvale, Calif.). EC50 was determined using GraphPad Prism 5 (GraphPad Software, La Jolla, Calif.) (FIG. 2).
as §1, with “ELISA” for “Enzyme linked immunosorbent assays to screen for anti-PGE2 antibodies or anti-PGE2 containing DVD-Ig molecules that bind prostaglandin E2 were performed as follows. ELISA”, “(Invitrogen,” for “(Invitrogen”, “IgG” for “IgG or DVD-Ig”, “Solution).” for “Solution). For PGE2 binding,”, “Calif.).” for “Calif.) (FIG. 2).”

[4] = Size exclusion chromatography, percent monomer of parent antibodies and DVD-Ig constructs; type: physicochemical
Protocol: Antibodies were diluted to 2.5 mg/mL with water and […] is analyzed on a Shimadzu HPLC system using a TSK gel G3000 SWXL column (Tosoh Bioscience, cat#k5539-05k). […] The HPLC system operating conditions are the following: […]

Kd [2] | EC50 [3] | Molecule | IC50 [1] | EC50 ([1]; PGE2 VD in C-terminal position, EP4 bioassay, Ca++ flux, read-out: C-terminal VD PGE2 Neutralization EC50) | koff (target antigen) | % Monomer (purity) [4]
0.383 nM |  | 2B5-hLL-8C11: anti-murine TNFα/anti-PGE2 DVD-Ig, human long linker, SEQ ID 108/109 (antibody) heavy: QVQLQQSGPELVRPGSSVKISCKASGYTFTKYWLGWVKQRPGHGLEWIGDIYPGYDYTHYNEKFKDKATLTVDTSSSTAYMQLSSLTSEDSAIYYCARSDGSSTYWGQGTLVTVSAASTKGPSVFPLAPEFQLQQSGPELVKPGASVRISCKASGYSFTDYNMNWVKQSNGKSLEWVGVINPNYGSSTYNQKFKGKATLTVDQSSSTAYMQLNSLTSEDSAVYYCARKWGQLGRGFFDVWGTGTTVTVSS light: DVLMTQTPLSLPVSLGDQASISCTSSQNIVHSNGNTYLEWYLQRPGQSPKLLIYKVSNRFSGVPDRFSGSGSGTVFTLKISRVEAEDLGVYYCFQVSHVPYTFGGGTKLEIKRTVAAPSVFIFPPQIVLSQSPAILSASPGEKVTMTCRASSSVSYMHWFQQKPGSSPKPWIYATSNLASGVPARFSGSGSGTSYSLTISRVEAEDAATYYCQQWSSSPLTFGAGTKLELKR | 0.064 nM |  |  | 
0.238 nM |  | 2B5-hSL-8C11: anti-murine TNFα/anti-PGE2 DVD-Ig, human short linker, SEQ ID 106/107 (antibody) heavy: QVQLQQSGPELVRPGSSVKISCKASGYTFTKYWLGWVKQRPGHGLEWIGDIYPGYDYTHYNEKFKDKATLTVDTSSSTAYMQLSSLTSEDSAIYYCARSDGSSTYWGQGTLVTVSAASTKGPEFQLQQSGPELVKPGASVRISCKASGYSFTDYNMNWVKQSNGKSLEWVGVINPNYGSSTYNQKFKGKATLTVDQSSSTAYMQLNSLTSEDSAVYYCARKWGQLGRGFFDVWGTGTTVTVSS light: DVLMTQTPLSLPVSLGDQASISCTSSQNIVHSNGNTYLEWYLQRPGQSPKLLIYKVSNRFSGVPDRFSGSGSGTVFTLKISRVEAEDLGVYYCFQVSHVPYTFGGGTKLEIKRTVAAPQIVLSQSPAILSASPGEKVTMTCRASSSVSYMHWFQQKPGSSPKPWIYATSNLASGVPARFSGSGSGTSYSLTISRVEAEDAATYYCQQWSSSPLTFGAGTKLELKR | 0.02 nM |  |  | 
 | 1.54 nM | DVD154: DVD-Ig construct listed in Table 4 (antibody) VH: EVQLVQSGAEVKKPGESLKISCKVSGYFFTTYWIGWVRQMPGKGLEYMGIIYPGDSDTRYSPSFQGQVTISADKSISTAYLQWSSLKASDTAMYYCARGGNWNCFDYWGQGTLVTVSSASTKGPEVQLVQSGAEVKKPGASVKVSCKASGYTFTKYWLGWVRQAPGQGLEWMGDIYPGYDYTHYNEKFKDRVTLTTDTSTSTAYMELRSLRSDDTAVYYCARSDGSSTYWGQGTLVTVSS VL: EIVLTQSPGTLSLSPGERATLSCRASQSVSSSYLAWYQQKPGQAPRLLIYGASRRATGIPDRFSGSGSGTDFTLTISRLEPEDFAVYYCQRYGSSHTFGQGTKLEISRTVAAPDVLMTQTPLSLPVTPGEPASISCTSSQNIVHSNGNTYLEWYLQKPGQSPQLLIYKVSNRFSGVPDRFSGSGSGTDFTLKISRVEAEDVGVYYCFQVSHVPYTFGGGTKVEIKR |  | 0.029 nM | 0.00198 s⁻¹ | 88.7%
